Reference: patent publication US20160168210A1, “DERIVATIVES OF COLLAGEN-BINDING HAIRPIN PEPTIDES” (NATIONAL RESEARCH COUNCIL OF CANADA, priority 2012, published 2016)
Entries after “also recorded” stand apart in the source; their conditions may differ. Where no end group is shown, it is not given here.

Experiments:
[1] = In vivo biodistribution by fluorescence imaging in nude mice; parameters: species or system mouse; conditions: for fluorescence biodistribution: ~0.25 mg/kg
Method: (§1) Immune-compromised nude mice (20-30 g) and normal Sprague-Dawley rats (250-310 g; Charles River Laboratories, St-Constant, QC, Canada) were acclimated for at least 3 days prior to the start of the study. Animals were housed in microisolator cages and were kept on a 12-hr light/dark cycle with constant temperature and humidity. Food and water were provided ad libitum. Stock solutions of various agents and peptides of this invention were diluted in saline (0.9% sodium chloride) prior to use. Saline formulations of FL4247 were prepared in such a way that similar dose levels were achieved based on the body weight of the experimental animals used for the study (i.e. in mg/kg).
(§2) Of the different methods available, imaging with fluorescently-labeled test compounds is particularly useful for assessing the in vivo biodistribution in real time with live animals. Therefore, the biodistribution of FL4247 was followed over time in two nude mice each for two routes of administration: 1) intravenous (I.V.); and 2) intraperitoneal (I.P.). Another imaging experiment was carried out using a Sprague-Darley rat (Charles River Laboratories, St-Constant, QC, Canada) through a tail-vein (I.V.) administration of an FL4247 solution.
The I.V. injection route depicted similar results in both studies even though the imaging sequence parameters were different (study 1=1 image/2 minutes over 30 minutes; study 2=1 image/5 minutes over 60 minutes).
Similar results were obtained in two studies involving the I.P. route of injection. Different imaging parameters were again used (study 1=1 image/2 minutes over 60 minutes; study 2=1 image/5 minutes over 90 minutes). The I.P. injection of FL4247 led to the accumulation of the compound at the level of the head within 5 minutes. […] The distribution of FL4247 over the entire body is complete within 30 minutes accompanied by a slow accumulation of fluorescence in the bladder region.

[2] = test system: abdominal vena cava injured by FeCl3
Source text: The application of ferric chloride on venous and arterial vessels was therefore the method used to produce the inflamed vasculature in the animal model. The carotid artery (arterial model) and the abdominal vena cava (venous model) were the chosen vessels for the imaging experiments with injured blood vessels undergong thrombosis.
The FeCl3 rat venous model of thrombosis was generated as described (Wang 2005) with some modifications. Briefly, rats were anesthetized with a 2.5% isoflurane/oxygen mixture and placed on a heat source (35-37° C.). The vena cava was then exposed via a midline incision and the region between the renal and iliolumbar veins was isolated. One minute after drug administration, a piece of filter paper (Gel Blot Paper, GB003, Whatman, Piscataway, N.J., USA; 7 mm diameter) saturated with 10% FeCl3 (EMD Chemicals Inc., Gibbstown, N.J., USA) was placed on the exposed surface of the vena cava and incubated for 3.5 minutes. During the application of FeCl3, the abdominal region was covered with aluminum foil. At the end of the incubation period, the filter paper was removed and the exposed viscera covered with a saline-soaked gauze.
In these imaging experiments, there were also a 30-minute waiting time after introduction of FeCl3 to the exposed vena cava to ensure the development of substantial vascular injury and the deposition of a thrombus.

[3] = test system: fibrotic tissues of the lung; experiment: Fluorescence imaging in bleomycin-induced mouse model of pulmonary fibrosis; type: in vivo
Source text: Tissue localization of the representative compound FL4247 containing a collagen-binding hairpin peptide was further examined using a bleomycin-induced mouse model of pulmonary fibrosis. […] This is accompanied by fluorescence localization into generally inflamed tissues in the oral cavities of these mice, which are induced through either mechanical or contact damages. It can therefore be concluded that FL4247 has an affinity for inflamed/fibrosing tissues in vivo, very likely due to specific binding of the collagen-responsive hairpin moiety to newly-secreted collagen enriched in these tissue environments.
Specifically, pulmonary instillation of bleomysin was used to initiate pulmonary fibrosis in a mouse model using immune-compromised nude mice. The objective was to determine if the fluorescent FL4247 compound would localize in fibrotic tissues of the lung induced by bleomycin. […] The imaging data thus obtained confirm that: 1) the fluorescence detected in vivo in the thorax region was indeed coming from the lung and from the heart; and 2) since no fluorescence was detected in the lung and heart of the control mouse, the signal detected in the fibrotic mouse injected with FL4247 is very likely a result of different lung tissues induced by fibrosis. […]

[4] = In vivo biodistribution by fluorescence imaging in a normal Sprague-Dawley rat
Method: as §1, §2
The biodistribution was also assessed using one rat in which FL4247 was injected intravenously (I.V.) through the tail vein. To illustrate the capacity for image contrast, only 10% (one tenth or 1/10) of FL4247 was used with the normal rat (FIG. 9C) as compared to the dosage of FL4247 used for imaging vascular injury in venous thrombosis (see FIG. 10). […] Then the fluorescence became more intense in both kidneys for the next 25 minutes and finally the fluorescence appeared in the bladder for the remainder of the experiment time. Although the head was not imaged during this experiment, ex vivo imaging was carried out at the end of the live-animal protocol with the dissected brain, heart, liver and both kidneys. A small amount of fluorescence was detected in the liver and a much stronger signal (about 10 times) was present in both kidneys.

[5] = target: rat-tail collagen type I (Rattus norvegicus, UniProt P02454+P02466); experiment: Retention of fluorescent peptide by collagen hydrogels, fluorescence imaging; type: binding; parameters: used together with rat-tail collagen (type I); from tissue; host or cells: rat tail; conditions: pre-formed or pre-mixed collagen hydrogel disks
Source text: Peptide P4247 conjugated to a fluorescent probe, i.e. FL4247 (Table 5), was therefore used together with rat-tail collagen (type I) to assess the binding capacity of CBLH peptides to collagen and to illustrate the potential applications of collagen hydrogels formulated with compounds of this invention. The fluorescent probe, HiLyte Fluor750 (AnaSpec, California) was selected with a maximum absorption at an optical wavelength of 750 nm and with a maximum fluorescence emission at 800 nm. Therefore, the intensity of fluorescence emissions would also be optimal for in vivo imaging of tissue locations with a differential enrichment of the injected fluorescent compound (see Examples 8-10). […] For this first experiment, FL4247 in a hydrogel solution were loaded onto the pre-formed collagen hydrogels and molecular diffusion off FL4247 was followed by fluorescence imaging (FIG. 8A, left image). […] Such FL4247-collagen hydrogel preparations (FIG. 8A, right) were then submerged in a large volume of buffer solutions (e.g. the PBS) and the degree of FL4247 retention by the hydrogels were followed by fluorescence imaging (FIG. 8B). […] However, the observed fluorescence intensity was still restricted close to the center of the hydrogel disks 30 minutes after the FL4247 solution was applied (FIG. 8A, left). […]

rat-tail collagen type I, sequence (P02466 86-1125): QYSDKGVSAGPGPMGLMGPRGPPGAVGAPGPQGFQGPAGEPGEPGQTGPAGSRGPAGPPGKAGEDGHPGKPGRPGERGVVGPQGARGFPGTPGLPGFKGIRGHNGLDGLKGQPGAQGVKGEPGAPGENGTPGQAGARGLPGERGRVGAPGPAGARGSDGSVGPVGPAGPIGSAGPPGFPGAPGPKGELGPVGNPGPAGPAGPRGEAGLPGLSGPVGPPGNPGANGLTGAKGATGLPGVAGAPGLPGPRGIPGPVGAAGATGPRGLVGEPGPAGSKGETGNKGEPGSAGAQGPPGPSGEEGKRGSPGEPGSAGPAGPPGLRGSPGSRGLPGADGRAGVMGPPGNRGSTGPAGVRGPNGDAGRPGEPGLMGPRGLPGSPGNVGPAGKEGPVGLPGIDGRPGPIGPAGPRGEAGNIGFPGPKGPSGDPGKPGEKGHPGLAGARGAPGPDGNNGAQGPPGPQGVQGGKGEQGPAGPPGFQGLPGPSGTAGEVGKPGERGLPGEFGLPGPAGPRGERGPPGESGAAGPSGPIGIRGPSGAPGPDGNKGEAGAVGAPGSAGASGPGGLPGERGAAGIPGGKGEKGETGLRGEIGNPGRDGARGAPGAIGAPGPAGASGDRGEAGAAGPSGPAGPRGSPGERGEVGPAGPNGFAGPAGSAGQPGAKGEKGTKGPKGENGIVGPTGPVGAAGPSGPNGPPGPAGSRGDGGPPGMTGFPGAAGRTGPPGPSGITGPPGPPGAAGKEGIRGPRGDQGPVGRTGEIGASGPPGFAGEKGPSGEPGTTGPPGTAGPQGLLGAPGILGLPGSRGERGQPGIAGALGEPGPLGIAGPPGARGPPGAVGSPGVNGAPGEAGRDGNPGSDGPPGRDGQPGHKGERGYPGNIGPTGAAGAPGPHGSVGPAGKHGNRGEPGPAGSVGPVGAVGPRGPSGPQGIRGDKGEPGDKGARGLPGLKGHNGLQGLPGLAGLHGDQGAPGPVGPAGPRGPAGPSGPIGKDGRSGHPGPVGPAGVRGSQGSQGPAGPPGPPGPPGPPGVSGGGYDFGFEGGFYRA
rat-tail collagen type I, sequence (P02454 152-1207): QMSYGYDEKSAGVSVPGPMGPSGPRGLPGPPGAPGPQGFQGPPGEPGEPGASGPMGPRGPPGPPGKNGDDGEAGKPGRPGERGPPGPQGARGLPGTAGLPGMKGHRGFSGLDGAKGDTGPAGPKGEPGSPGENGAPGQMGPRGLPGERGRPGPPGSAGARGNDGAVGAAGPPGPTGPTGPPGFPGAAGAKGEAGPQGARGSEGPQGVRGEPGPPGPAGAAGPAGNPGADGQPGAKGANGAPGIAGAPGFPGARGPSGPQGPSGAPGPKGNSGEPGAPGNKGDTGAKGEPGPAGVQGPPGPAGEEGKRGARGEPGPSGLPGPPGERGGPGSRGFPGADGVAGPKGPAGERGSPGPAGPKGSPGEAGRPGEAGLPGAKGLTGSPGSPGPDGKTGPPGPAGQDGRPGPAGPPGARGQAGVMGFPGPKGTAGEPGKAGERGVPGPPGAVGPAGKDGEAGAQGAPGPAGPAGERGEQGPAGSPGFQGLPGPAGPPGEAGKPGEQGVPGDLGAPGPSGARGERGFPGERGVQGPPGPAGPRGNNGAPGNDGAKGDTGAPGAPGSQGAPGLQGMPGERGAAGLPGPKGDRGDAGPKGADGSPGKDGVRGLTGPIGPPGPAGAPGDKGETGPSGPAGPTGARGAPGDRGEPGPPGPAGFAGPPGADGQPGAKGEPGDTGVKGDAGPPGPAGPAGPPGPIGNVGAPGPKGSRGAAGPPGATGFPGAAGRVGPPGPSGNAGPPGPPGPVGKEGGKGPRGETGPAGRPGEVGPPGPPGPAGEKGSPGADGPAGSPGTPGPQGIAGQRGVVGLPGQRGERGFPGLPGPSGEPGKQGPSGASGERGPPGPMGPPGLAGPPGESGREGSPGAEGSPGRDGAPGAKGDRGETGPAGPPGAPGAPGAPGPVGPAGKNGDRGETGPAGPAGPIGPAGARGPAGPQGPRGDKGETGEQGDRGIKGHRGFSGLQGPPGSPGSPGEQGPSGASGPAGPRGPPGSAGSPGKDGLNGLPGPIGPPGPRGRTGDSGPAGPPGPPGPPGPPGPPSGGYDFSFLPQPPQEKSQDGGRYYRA

Substance: IRFTDGEWTWDDATKTWTWTEGGC-Fluor750 (not fully specified (C-terminus); printed as IRFTDGEWTWDDATKTWTWTEGGC-Fluor750; also: HiLyte Fluor750 conjugate) [FL4247, peptide P4247 conjugated to fluorescent probe HiLyte Fluor750]
- time to accumulation at the level of the head ([1]; I.P.): ≤ 5 min
- time to complete distribution over the entire body ([1]; I.P.): ≤ 30 min
- fluorescence biodistribution ([1]; I.P.): far inferior over time compared to the I.V. injection; also recorded: no specific local accumulation of FL4247 was noted
- fluorescence biodistribution ([1]; I.V.): accumulated rapidly in the head region followed by a slow decrease of fluorescent intensity over time; also recorded: accumulated in the bladder; also recorded: no other organs appeared to accumulate or retain FL4247
- fluorescence at the injured abdominal vena cava ([2]; I.V. 30 minutes after FeCl3 application, ~0.2 mg/kg): strong fluorescence signal
- signal in dissected thrombus weaker than along injured vasculature ([2]; ex vivo imaging, I.V. 30 minutes after FeCl3): about 3 times
- clearance ([2]; rat venous thrombosis model, I.V.): rapid clearance of FL4247 via the kidneys to the bladder
- mice with I.V. injection showing marked fluorescence in the lung ([3]; I.V.): two out of three mice
- fluorescence retention in fibrotic lung ([3]; tail vein injection, ~0.5 mg/kg): high degree of FL4247 fluorescence was retained in the area of the lung
- fluorescence biodistribution (live and ex vivo imaging) ([4]; I.V. tail vein, 0.025 mg/kg): differential accumulation in the head region, in the kidneys and in the bladder; also recorded: Nothing was detected in the brain and heart organs
- ex vivo signal in both kidneys relative to liver ([4]; I.V., end of live-animal protocol): about 10 times
- decrease of liver fluorescence ([4]; I.V., within 5 minutes): 10 times
- diffusion in / retention by collagen hydrogels (fluorescence) [5]: significantly retarded the diffusion of FL4247 in the gel matrix; also recorded: could resist outward diffusion into buffer solutions
